According to the supplement of paper PMC10567573:

B1: NFE2L1 (parent)
chain: TLDGYGIHPKSIDLDNYFTARRLL
B2: ADAMTS4 (parent)
chain: HVDPEEPWSPCSARFITDFLDNGY

Variants of: B1
Assay: protein stability index of a GFP-peptide fusion (GPS, HEK-293T) (PSI 1-6); higher = more stable
Details: c terminus: a fixed tail appended
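Further: lentivirally expressed fusions sorted by FACS into six bins by GFP to DsRed ratio, PSI derived from sequencing read proportions per bin multiplied by bin number.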

Variant	protein stability index
TLDGYGIHPKSIDLDNYFTALRLL [R21L]	1.9
TLDGYGIHPKSIDLDNYFTAMRLL [R21M]	1.86
TLDGYGIHPKSIDLDNYFTANRLL [R21N]	1.8
TLDGYGIHPKSIDLDNYFTAPRLL [R21P]	2.05
TLDGYGIHPKSIDLDNYFTAQRLL [R21Q]	1.71
TLDGYGIHPKSIDLDNYFTASRLL [R21S]	1.69
TLDGYGIHPKSIDLDNYFTATRLL [R21T]	1.56
TLDGYGIHPKSIDLDNYFTAVRLL [R21V]	2.72
TLDGYGIHPKSIDLDNYFTAWRLL [R21W]	1.08
TLDGYGIHPKSIDLDNYFTAYRLL [R21Y]	3.26
TLDGYGIHPKSIDLDNYFTARALL [R22A]	1.49
TLDGYGIHPKSIDLDNYFTARCLL [R22C]	2.16
TLDGYGIHPKSIDLDNYFTARDLL [R22D]	2.05
TLDGYGIHPKSIDLDNYFTARELL [R22E]	1.88
TLDGYGIHPKSIDLDNYFTARFLL [R22F]	1.6
TLDGYGIHPKSIDLDNYFTARGLL [R22G]	2.53
TLDGYGIHPKSIDLDNYFTARHLL [R22H]	2.2
TLDGYGIHPKSIDLDNYFTARILL [R22I]	3.54
TLDGYGIHPKSIDLDNYFTARKLL [R22K]	2.2
TLDGYGIHPKSIDLDNYFTARNLL [R22N]	1.85
TLDGYGIHPKSIDLDNYFTARPLL [R22P]	1.97
TLDGYGIHPKSIDLDNYFTARQLL [R22Q]	1.89

Variant	protein stability index
TLDGYGIHPKSIDLDNYFTARSLL [R22S]	1.69
TLDGYGIHPKSIDLDNYFTARTLL [R22T]	2.25
TLDGYGIHPKSIDLDNYFTARVLL [R22V]	1.71
TLDGYGIHPKSIDLDNYFTARWLL [R22W]	2.21
TLDGYGIHPKSIDLDNYFTARYLL [R22Y]	1.89
TLDGYGIHPKSIDLDNYFTARRAL [L23A]	2.62
TLDGYGIHPKSIDLDNYFTARRCL [L23C]	2.41
TLDGYGIHPKSIDLDNYFTARRDL [L23D]	2.4
TLDGYGIHPKSIDLDNYFTARREL [L23E]	2.6
TLDGYGIHPKSIDLDNYFTARRFL [L23F]	1.93
TLDGYGIHPKSIDLDNYFTARRGL [L23G]	2.42
TLDGYGIHPKSIDLDNYFTARRHL [L23H]	2.18
TLDGYGIHPKSIDLDNYFTARRIL [L23I]	1.64
TLDGYGIHPKSIDLDNYFTARRKL [L23K]	3.26
TLDGYGIHPKSIDLDNYFTARRML [L23M]	2.03
TLDGYGIHPKSIDLDNYFTARRNL [L23N]	2.32
TLDGYGIHPKSIDLDNYFTARRPL [L23P]	2.54
TLDGYGIHPKSIDLDNYFTARRQL [L23Q]	2.71
TLDGYGIHPKSIDLDNYFTARRRL [L23R]	3.19
TLDGYGIHPKSIDLDNYFTARRSL [L23S]	3.05
TLDGYGIHPKSIDLDNYFTARRTL [L23T]	2.17
TLDGYGIHPKSIDLDNYFTARRVL [L23V]	1.66

Variant	protein stability index
TLDGYGIHPKSIDLDNYFTARRWL [L23W]	1.82
TLDGYGIHPKSIDLDNYFTARRYL [L23Y]	2.33
TLDGYGIHPKSIDLDNYFTARRLA [L24A]	2.26
TLDGYGIHPKSIDLDNYFTARRLC [L24C]	1.84
TLDGYGIHPKSIDLDNYFTARRLD [L24D]	2.69
TLDGYGIHPKSIDLDNYFTARRLE [L24E]	2.79
TLDGYGIHPKSIDLDNYFTARRLF [L24F]	2.42
TLDGYGIHPKSIDLDNYFTARRLG [L24G]	2.56
TLDGYGIHPKSIDLDNYFTARRLH [L24H]	2.14
TLDGYGIHPKSIDLDNYFTARRLI [L24I]	1.75
TLDGYGIHPKSIDLDNYFTARRLK [L24K]	2.9
TLDGYGIHPKSIDLDNYFTARRLM [L24M]	2.5
TLDGYGIHPKSIDLDNYFTARRLN [L24N]	2.48
TLDGYGIHPKSIDLDNYFTARRLP [L24P]	2.56
TLDGYGIHPKSIDLDNYFTARRLQ [L24Q]	1.85
TLDGYGIHPKSIDLDNYFTARRLR [L24R]	3.05
TLDGYGIHPKSIDLDNYFTARRLS [L24S]	2.48
TLDGYGIHPKSIDLDNYFTARRLT [L24T]	2.42
TLDGYGIHPKSIDLDNYFTARRLV [L24V]	2.08
TLDGYGIHPKSIDLDNYFTARRLW [L24W]	2.31
TLDGYGIHPKSIDLDNYFTARRLY [L24Y]	1.72

Variants of: B2
Assay: as above
Details: c terminus: a fixed tail appended

Variant	protein stability index
AVDPEEPWSPCSARFITDFLDNGY [H1A]	2.09
CVDPEEPWSPCSARFITDFLDNGY [H1C]	2.17
DVDPEEPWSPCSARFITDFLDNGY [H1D]	2.4
EVDPEEPWSPCSARFITDFLDNGY [H1E]	2.76
FVDPEEPWSPCSARFITDFLDNGY [H1F]	3.17
GVDPEEPWSPCSARFITDFLDNGY [H1G]	2.81
IVDPEEPWSPCSARFITDFLDNGY [H1I]	2.1
KVDPEEPWSPCSARFITDFLDNGY [H1K]	1.91
LVDPEEPWSPCSARFITDFLDNGY [H1L]	1.78
MVDPEEPWSPCSARFITDFLDNGY [H1M]	1.95
NVDPEEPWSPCSARFITDFLDNGY [H1N]	2.37
PVDPEEPWSPCSARFITDFLDNGY [H1P]	2.57
QVDPEEPWSPCSARFITDFLDNGY [H1Q]	2.31
RVDPEEPWSPCSARFITDFLDNGY [H1R]	2.26
SVDPEEPWSPCSARFITDFLDNGY [H1S]	2.54
TVDPEEPWSPCSARFITDFLDNGY [H1T]	2.77
VVDPEEPWSPCSARFITDFLDNGY [H1V]	2.04
WVDPEEPWSPCSARFITDFLDNGY [H1W]	1.78
YVDPEEPWSPCSARFITDFLDNGY [H1Y]	2.29
HADPEEPWSPCSARFITDFLDNGY [V2A]	2.36
HCDPEEPWSPCSARFITDFLDNGY [V2C]	2.09
HDDPEEPWSPCSARFITDFLDNGY [V2D]	3
HEDPEEPWSPCSARFITDFLDNGY [V2E]	3.19
HFDPEEPWSPCSARFITDFLDNGY [V2F]	2.14
HGDPEEPWSPCSARFITDFLDNGY [V2G]	2.9

Variant	protein stability index
HHDPEEPWSPCSARFITDFLDNGY [V2H]	2.37
HIDPEEPWSPCSARFITDFLDNGY [V2I]	2.56
HKDPEEPWSPCSARFITDFLDNGY [V2K]	2.62
HLDPEEPWSPCSARFITDFLDNGY [V2L]	2.23
HMDPEEPWSPCSARFITDFLDNGY [V2M]	2.75
HNDPEEPWSPCSARFITDFLDNGY [V2N]	2.48
HPDPEEPWSPCSARFITDFLDNGY [V2P]	2.23
HQDPEEPWSPCSARFITDFLDNGY [V2Q]	2.16
HRDPEEPWSPCSARFITDFLDNGY [V2R]	2.4
HSDPEEPWSPCSARFITDFLDNGY [V2S]	2.55
HTDPEEPWSPCSARFITDFLDNGY [V2T]	2.2
HWDPEEPWSPCSARFITDFLDNGY [V2W]	2.08
HYDPEEPWSPCSARFITDFLDNGY [V2Y]	2.05
HVAPEEPWSPCSARFITDFLDNGY [D3A]	1.69
HVCPEEPWSPCSARFITDFLDNGY [D3C]	2.63
HVEPEEPWSPCSARFITDFLDNGY [D3E]	1.75
HVFPEEPWSPCSARFITDFLDNGY [D3F]	1.79
HVGPEEPWSPCSARFITDFLDNGY [D3G]	2.78
HVHPEEPWSPCSARFITDFLDNGY [D3H]	1.98
HVIPEEPWSPCSARFITDFLDNGY [D3I]	1.55
HVKPEEPWSPCSARFITDFLDNGY [D3K]	1.76
HVLPEEPWSPCSARFITDFLDNGY [D3L]	1.78
HVMPEEPWSPCSARFITDFLDNGY [D3M]	1.89
HVNPEEPWSPCSARFITDFLDNGY [D3N]	2.21
HVPPEEPWSPCSARFITDFLDNGY [D3P]	1.85

Variant	protein stability index
HVQPEEPWSPCSARFITDFLDNGY [D3Q]	2.49
HVRPEEPWSPCSARFITDFLDNGY [D3R]	1.8
HVSPEEPWSPCSARFITDFLDNGY [D3S]	2.48
HVTPEEPWSPCSARFITDFLDNGY [D3T]	2.04
HVVPEEPWSPCSARFITDFLDNGY [D3V]	1.77
HVWPEEPWSPCSARFITDFLDNGY [D3W]	1.34
HVYPEEPWSPCSARFITDFLDNGY [D3Y]	1.11
HVDAEEPWSPCSARFITDFLDNGY [P4A]	1.63
HVDCEEPWSPCSARFITDFLDNGY [P4C]	2.23
HVDDEEPWSPCSARFITDFLDNGY [P4D]	2.11
HVDEEEPWSPCSARFITDFLDNGY [P4E]	2.07
HVDFEEPWSPCSARFITDFLDNGY [P4F]	1.63
HVDGEEPWSPCSARFITDFLDNGY [P4G]	2.9
HVDHEEPWSPCSARFITDFLDNGY [P4H]	2.21
HVDIEEPWSPCSARFITDFLDNGY [P4I]	1.77
HVDKEEPWSPCSARFITDFLDNGY [P4K]	1.87
HVDLEEPWSPCSARFITDFLDNGY [P4L]	1.63
HVDMEEPWSPCSARFITDFLDNGY [P4M]	1.77
HVDNEEPWSPCSARFITDFLDNGY [P4N]	1.95
HVDQEEPWSPCSARFITDFLDNGY [P4Q]	1.9
HVDREEPWSPCSARFITDFLDNGY [P4R]	2.42
HVDSEEPWSPCSARFITDFLDNGY [P4S]	1.9
HVDTEEPWSPCSARFITDFLDNGY [P4T]	1.8
HVDVEEPWSPCSARFITDFLDNGY [P4V]	1.62
HVDWEEPWSPCSARFITDFLDNGY [P4W]	1.69

Variant	protein stability index
HVDYEEPWSPCSARFITDFLDNGY [P4Y]	1.98
HVDPAEPWSPCSARFITDFLDNGY [E5A]	2.37
HVDPCEPWSPCSARFITDFLDNGY [E5C]	2.19
HVDPDEPWSPCSARFITDFLDNGY [E5D]	1.9
HVDPFEPWSPCSARFITDFLDNGY [E5F]	2.72
HVDPGEPWSPCSARFITDFLDNGY [E5G]	2.13
HVDPHEPWSPCSARFITDFLDNGY [E5H]	1.66
HVDPIEPWSPCSARFITDFLDNGY [E5I]	2.32
HVDPKEPWSPCSARFITDFLDNGY [E5K]	2.58
HVDPLEPWSPCSARFITDFLDNGY [E5L]	2.31
HVDPMEPWSPCSARFITDFLDNGY [E5M]	2.17
HVDPNEPWSPCSARFITDFLDNGY [E5N]	1.96
HVDPPEPWSPCSARFITDFLDNGY [E5P]	2.29
HVDPQEPWSPCSARFITDFLDNGY [E5Q]	2.43
HVDPREPWSPCSARFITDFLDNGY [E5R]	2.77
HVDPSEPWSPCSARFITDFLDNGY [E5S]	2.35
HVDPTEPWSPCSARFITDFLDNGY [E5T]	2.96
HVDPVEPWSPCSARFITDFLDNGY [E5V]	1.92
HVDPWEPWSPCSARFITDFLDNGY [E5W]	2.79
HVDPYEPWSPCSARFITDFLDNGY [E5Y]	3.13
HVDPEAPWSPCSARFITDFLDNGY [E6A]	1.85
HVDPECPWSPCSARFITDFLDNGY [E6C]	2.21
HVDPEDPWSPCSARFITDFLDNGY [E6D]	1.76
HVDPEFPWSPCSARFITDFLDNGY [E6F]	2.19
HVDPEGPWSPCSARFITDFLDNGY [E6G]	1.92

Variant	protein stability index
HVDPEHPWSPCSARFITDFLDNGY [E6H]	1.74
HVDPEIPWSPCSARFITDFLDNGY [E6I]	1.56
HVDPEKPWSPCSARFITDFLDNGY [E6K]	1.64
HVDPELPWSPCSARFITDFLDNGY [E6L]	2.05
HVDPEMPWSPCSARFITDFLDNGY [E6M]	2.59
HVDPENPWSPCSARFITDFLDNGY [E6N]	1.94
HVDPEPPWSPCSARFITDFLDNGY [E6P]	2.72
HVDPEQPWSPCSARFITDFLDNGY [E6Q]	2.24
HVDPERPWSPCSARFITDFLDNGY [E6R]	2.44
HVDPESPWSPCSARFITDFLDNGY [E6S]	2.43
HVDPETPWSPCSARFITDFLDNGY [E6T]	1.77
HVDPEVPWSPCSARFITDFLDNGY [E6V]	1.79
HVDPEWPWSPCSARFITDFLDNGY [E6W]	2.57
HVDPEYPWSPCSARFITDFLDNGY [E6Y]	2.07
HVDPEEAWSPCSARFITDFLDNGY [P7A]	1.48
HVDPEECWSPCSARFITDFLDNGY [P7C]	2.11
HVDPEEDWSPCSARFITDFLDNGY [P7D]	2.7
HVDPEEEWSPCSARFITDFLDNGY [P7E]	2.67
HVDPEEFWSPCSARFITDFLDNGY [P7F]	2.85
HVDPEEGWSPCSARFITDFLDNGY [P7G]	1.92
HVDPEEHWSPCSARFITDFLDNGY [P7H]	1.57
HVDPEEIWSPCSARFITDFLDNGY [P7I]	1.61
HVDPEEKWSPCSARFITDFLDNGY [P7K]	1.89
